Results on 15 molecules are retold here after patent US20030229005A1 (BIOZYME, published 2003).

Holding throughout (test): cell-based or functional assay
In one assay the target is gelatinase B (UniProt P14780 107-707, limits assumed).
Another assay has as its target T1, collagenase 1 (UniProt P03956 100-469, limits assumed).
T1 sequence (looked up): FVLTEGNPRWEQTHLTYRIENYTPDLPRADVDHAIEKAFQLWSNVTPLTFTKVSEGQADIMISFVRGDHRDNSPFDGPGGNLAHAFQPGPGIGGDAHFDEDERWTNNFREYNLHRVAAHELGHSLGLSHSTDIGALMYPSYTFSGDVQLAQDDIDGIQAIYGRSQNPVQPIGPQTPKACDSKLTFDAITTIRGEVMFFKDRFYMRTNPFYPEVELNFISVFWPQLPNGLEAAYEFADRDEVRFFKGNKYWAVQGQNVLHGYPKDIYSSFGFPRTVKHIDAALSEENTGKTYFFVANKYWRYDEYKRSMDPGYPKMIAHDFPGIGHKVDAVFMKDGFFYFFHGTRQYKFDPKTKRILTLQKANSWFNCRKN

The target of the next assay is T2, human Gelatinase-A (human, UniProt P08253 110-660, limits assumed).
T2 sequence (looked up): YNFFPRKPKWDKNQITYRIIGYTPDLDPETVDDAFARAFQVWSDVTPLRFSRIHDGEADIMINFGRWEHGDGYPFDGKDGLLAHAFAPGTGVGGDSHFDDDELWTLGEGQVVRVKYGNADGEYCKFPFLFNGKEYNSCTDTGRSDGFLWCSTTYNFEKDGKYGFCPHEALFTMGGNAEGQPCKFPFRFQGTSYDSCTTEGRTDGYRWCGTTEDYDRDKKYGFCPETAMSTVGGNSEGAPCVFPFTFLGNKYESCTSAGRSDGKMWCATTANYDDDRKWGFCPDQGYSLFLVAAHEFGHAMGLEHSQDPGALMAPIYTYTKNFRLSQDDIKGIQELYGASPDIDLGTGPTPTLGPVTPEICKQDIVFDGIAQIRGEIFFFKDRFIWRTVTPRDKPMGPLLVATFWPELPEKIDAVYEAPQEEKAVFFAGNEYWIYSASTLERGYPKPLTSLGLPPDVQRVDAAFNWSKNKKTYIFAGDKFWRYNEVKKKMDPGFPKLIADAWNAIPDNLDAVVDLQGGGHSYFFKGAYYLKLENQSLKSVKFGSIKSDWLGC

The next assay addresses stromelysin 1 (UniProt P08254 100-477, limits assumed).

*1 amine or outer side, *2 acyl side, *3 side chain or, on linkers, in order; H or OH if unused. [ ]: non-standard residue; d: D form. The star is where a group is joined. Dnp = O=[N+]([O-])c1ccc(*)c([N+](=O)[O-])c1; C(Me) = CSC[C@H](N[*:1])C(=O)[*:2]

Sequence of stromelysin 1 (P08254 100-477 limits assumed): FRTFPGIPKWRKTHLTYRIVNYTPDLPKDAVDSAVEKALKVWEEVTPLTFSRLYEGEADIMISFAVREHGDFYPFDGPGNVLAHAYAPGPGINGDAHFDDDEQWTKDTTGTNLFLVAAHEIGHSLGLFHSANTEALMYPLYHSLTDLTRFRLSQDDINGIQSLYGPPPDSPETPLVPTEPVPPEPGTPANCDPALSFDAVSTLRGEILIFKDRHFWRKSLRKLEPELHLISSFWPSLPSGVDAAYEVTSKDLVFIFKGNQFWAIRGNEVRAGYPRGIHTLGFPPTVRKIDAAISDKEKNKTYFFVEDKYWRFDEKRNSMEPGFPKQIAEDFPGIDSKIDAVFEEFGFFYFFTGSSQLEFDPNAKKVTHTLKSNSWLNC
Sequence of gelatinase B (P14780 107-707 limits assumed): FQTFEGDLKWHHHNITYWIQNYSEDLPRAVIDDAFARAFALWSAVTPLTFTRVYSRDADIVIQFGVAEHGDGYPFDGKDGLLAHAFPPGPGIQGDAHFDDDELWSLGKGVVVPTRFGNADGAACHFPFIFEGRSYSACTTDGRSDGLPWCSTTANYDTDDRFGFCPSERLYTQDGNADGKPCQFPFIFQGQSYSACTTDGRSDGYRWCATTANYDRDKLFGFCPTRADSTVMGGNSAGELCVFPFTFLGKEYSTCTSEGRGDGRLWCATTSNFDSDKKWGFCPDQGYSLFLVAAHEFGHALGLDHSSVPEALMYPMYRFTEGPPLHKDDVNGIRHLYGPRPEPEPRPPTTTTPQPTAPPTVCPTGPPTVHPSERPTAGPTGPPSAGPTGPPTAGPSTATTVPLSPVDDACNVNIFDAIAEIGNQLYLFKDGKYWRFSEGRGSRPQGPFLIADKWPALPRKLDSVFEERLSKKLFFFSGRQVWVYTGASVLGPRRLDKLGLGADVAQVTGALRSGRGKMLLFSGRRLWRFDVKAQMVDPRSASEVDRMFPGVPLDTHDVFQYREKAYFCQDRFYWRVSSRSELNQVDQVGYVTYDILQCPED

B1: Dnp-GPSPLHGC(Me)-NH2 (peptide)
peptide: Dnp-GPSPLHG[C(Me)]-NH2
SMILES: CSC[C@H](NC(=O)CNC(=O)[C@H](Cc1c[nH]cn1)NC(=O)[C@H](CC(C)C)NC(=O)[C@@H]1CCCN1C(=O)[C@H](CO)NC(=O)[C@@H]1CCCN1C(=O)CNc1ccc([N+](=O)[O-])cc1[N+](=O)[O-])C(N)=O
Regarding B1, the “Selectivity v. Coll-3” value in the assay with gelatinase B stood at 7 unitless; with collagenase 1 it was 274 unitless; with human Gelatinase-A, 8 unitless; with stromelysin 1 it was 2990 unitless.

B2: Dnp-GPSPFHVC(Me)-NH2 (peptide)
peptide: Dnp-GPSPFHV[C(Me)]-NH2
SMILES: CSC[C@H](NC(=O)[C@@H](NC(=O)[C@H](Cc1c[nH]cn1)NC(=O)[C@H](Cc1ccccc1)NC(=O)[C@@H]1CCCN1C(=O)[C@H](CO)NC(=O)[C@@H]1CCCN1C(=O)CNc1ccc([N+](=O)[O-])cc1[N+](=O)[O-])C(C)C)C(N)=O
B2: the “Selectivity v. Coll-3” value was found to be 54 unitless with gelatinase B, 1570 unitless with collagenase 1, 18 unitless in the assay with human Gelatinase-A and 2100 unitless with stromelysin 1.

B3: Dnp-GPLGFRGC(Me)-NH2 (peptide)
peptide: Dnp-GPLGFRG[C(Me)]-NH2
SMILES: CSC[C@H](NC(=O)CNC(=O)[C@H](CCCNC(=N)N)NC(=O)[C@H](Cc1ccccc1)NC(=O)CNC(=O)[C@H](CC(C)C)NC(=O)[C@@H]1CCCN1C(=O)CNc1ccc([N+](=O)[O-])cc1[N+](=O)[O-])C(N)=O
In the case of B3, the “Selectivity v. Coll-3” value in the assay with gelatinase B was found to be 7 unitless; with collagenase 1, 10600 unitless; with human Gelatinase-A it was 10 unitless; in the assay with stromelysin 1 it was 7290 unitless.

B4: Dnp-GPLPFRGC(Me)-NH2 (peptide)
peptide: Dnp-GPLPFRG[C(Me)]-NH2
SMILES: CSC[C@H](NC(=O)CNC(=O)[C@H](CCCNC(=N)N)NC(=O)[C@H](Cc1ccccc1)NC(=O)[C@@H]1CCCN1C(=O)[C@H](CC(C)C)NC(=O)[C@@H]1CCCN1C(=O)CNc1ccc([N+](=O)[O-])cc1[N+](=O)[O-])C(N)=O
Turning to B4, the “Selectivity v. Coll-3” value in the assay with gelatinase B was determined as 8 unitless; with collagenase 1 it was 429 unitless; in the assay with human Gelatinase-A, 16 unitless; with stromelysin 1, 814 unitless.

B5: Dnp-GPLPFRVC(Me)-NH2 (peptide)
peptide: Dnp-GPLPFRV[C(Me)]-NH2
SMILES: CSC[C@H](NC(=O)[C@@H](NC(=O)[C@H](CCCNC(=N)N)NC(=O)[C@H](Cc1ccccc1)NC(=O)[C@@H]1CCCN1C(=O)[C@H](CC(C)C)NC(=O)[C@@H]1CCCN1C(=O)CNc1ccc([N+](=O)[O-])cc1[N+](=O)[O-])C(C)C)C(N)=O
With B5, the “Selectivity v. Coll-3” value was determined as 21 unitless with gelatinase B, 550 unitless with collagenase 1, 36 unitless with human Gelatinase-A and 332 unitless with stromelysin 1.

B6: Dnp-GPSPFRGC(Me)-NH2 (peptide)
peptide: Dnp-GPSPFRG[C(Me)]-NH2
SMILES: CSC[C@H](NC(=O)CNC(=O)[C@H](CCCNC(=N)N)NC(=O)[C@H](Cc1ccccc1)NC(=O)[C@@H]1CCCN1C(=O)[C@H](CO)NC(=O)[C@@H]1CCCN1C(=O)CNc1ccc([N+](=O)[O-])cc1[N+](=O)[O-])C(N)=O
Regarding B6, the “Selectivity v. Coll-3” value with gelatinase B turned out to be 13 unitless; in the assay with collagenase 1, 2430 unitless; with human Gelatinase-A, 10 unitless; with stromelysin 1 it was 1390 unitless.

B7: Dnp-GPAPFRGC(Me)-NH2 (peptide)
peptide: Dnp-GPAPFRG[C(Me)]-NH2
SMILES: CSC[C@H](NC(=O)CNC(=O)[C@H](CCCNC(=N)N)NC(=O)[C@H](Cc1ccccc1)NC(=O)[C@@H]1CCCN1C(=O)[C@H](C)NC(=O)[C@@H]1CCCN1C(=O)CNc1ccc([N+](=O)[O-])cc1[N+](=O)[O-])C(N)=O
For B7, the “Selectivity v. Coll-3” value in the assay with gelatinase B is 14 unitless; with collagenase 1, 4420 unitless; with human Gelatinase-A, 9 unitless; with stromelysin 1 it was 488 unitless.

B8: Dnp-GPLGFRVC(Me)-NH2 (peptide)
peptide: Dnp-GPLGFRV[C(Me)]-NH2
SMILES: CSC[C@H](NC(=O)[C@@H](NC(=O)[C@H](CCCNC(=N)N)NC(=O)[C@H](Cc1ccccc1)NC(=O)CNC(=O)[C@H](CC(C)C)NC(=O)[C@@H]1CCCN1C(=O)CNc1ccc([N+](=O)[O-])cc1[N+](=O)[O-])C(C)C)C(N)=O
Turning to B8, the “Selectivity v. Coll-3” value amounted to 20 unitless with gelatinase B, 17300 unitless with collagenase 1, 15 unitless with human Gelatinase-A and 3970 unitless with stromelysin 1.

B9: Dnp-VC(Me)PKGITSC(Me)VFR-NH2 (peptide)
peptide: Dnp-V[C(Me)]PKGITS[C(Me)]VFR-NH2
SMILES: CC[C@H](C)[C@H](NC(=O)CNC(=O)[C@H](CCCCN)NC(=O)[C@@H]1CCCN1C(=O)[C@H](CSC)NC(=O)[C@@H](Nc1ccc([N+](=O)[O-])cc1[N+](=O)[O-])C(C)C)C(=O)N[C@H](C(=O)N[C@@H](CO)C(=O)N[C@@H](CSC)C(=O)N[C@H](C(=O)N[C@@H](Cc1ccccc1)C(=O)N[C@@H](CCCNC(=N)N)C(N)=O)C(C)C)[C@@H](C)O
Consider B9, for which the “Selectivity v. Coll-3” value with gelatinase B was determined as 1 unitless; with collagenase 1 it was 215 unitless; in the assay with human Gelatinase-A it was 7 unitless; in the assay with stromelysin 1, 835 unitless.

B10: Dnp-GPAPLHGC(Me)-NH2 (peptide)
peptide: Dnp-GPAPLHG[C(Me)]-NH2
SMILES: CSC[C@H](NC(=O)CNC(=O)[C@H](Cc1c[nH]cn1)NC(=O)[C@H](CC(C)C)NC(=O)[C@@H]1CCCN1C(=O)[C@H](C)NC(=O)[C@@H]1CCCN1C(=O)CNc1ccc([N+](=O)[O-])cc1[N+](=O)[O-])C(N)=O
For B10, the “Selectivity v. Coll-3” value with gelatinase B came out at 10 unitless; in the assay with collagenase 1, 473 unitless; in the assay with human Gelatinase-A it was 12 unitless; in the assay with stromelysin 1, 620 unitless.

B11: Dnp-GPLPFHVC(Me)-NH2 (peptide)
peptide: Dnp-GPLPFHV[C(Me)]-NH2
SMILES: CSC[C@H](NC(=O)[C@@H](NC(=O)[C@H](Cc1c[nH]cn1)NC(=O)[C@H](Cc1ccccc1)NC(=O)[C@@H]1CCCN1C(=O)[C@H](CC(C)C)NC(=O)[C@@H]1CCCN1C(=O)CNc1ccc([N+](=O)[O-])cc1[N+](=O)[O-])C(C)C)C(N)=O
With B11, the “Selectivity v. Coll-3” value is 18 unitless in the assay with gelatinase B, 2950 unitless in the assay with collagenase 1, 20 unitless with human Gelatinase-A and 619 unitless with stromelysin 1.

B12: Dnp-GPLGLHGC(Me)-NH2 (peptide)
peptide: Dnp-GPLGLHG[C(Me)]-NH2
SMILES: CSC[C@H](NC(=O)CNC(=O)[C@H](Cc1c[nH]cn1)NC(=O)[C@H](CC(C)C)NC(=O)CNC(=O)[C@H](CC(C)C)NC(=O)[C@@H]1CCCN1C(=O)CNc1ccc([N+](=O)[O-])cc1[N+](=O)[O-])C(N)=O
In the case of B12, the “Selectivity v. Coll-3” value with gelatinase B turned out to be 5 unitless; in the assay with collagenase 1, 660 unitless; with human Gelatinase-A it was 16 unitless; in the assay with stromelysin 1, 10400 unitless.

B13: Dnp-GPSELKG-NH2 (peptide)
peptide: Dnp-GPSELKG-NH2
SMILES: CC(C)C[C@H](NC(=O)[C@H](CCC(=O)O)NC(=O)[C@H](CO)NC(=O)[C@@H]1CCCN1C(=O)CNc1ccc([N+](=O)[O-])cc1[N+](=O)[O-])C(=O)N[C@@H](CCCCN)C(=O)NCC(N)=O
Regarding B13, the “Selectivity v. Coll-3” value in the assay with gelatinase B worked out at 4 unitless; with collagenase 1 it was 470 unitless; in the assay with human Gelatinase-A, 7 unitless; in the assay with stromelysin 1, 831 unitless.

B14: Dnp-PHPFRG-NH2 (peptide)
peptide: Dnp-PHPFRG-NH2
SMILES: N=C(N)NCCC[C@H](NC(=O)[C@H](Cc1ccccc1)NC(=O)[C@@H]1CCCN1C(=O)[C@H](Cc1c[nH]cn1)NC(=O)[C@@H]1CCCN1c1ccc([N+](=O)[O-])cc1[N+](=O)[O-])C(=O)NCC(N)=O
As for B14, the “Selectivity v. Coll-3” value with gelatinase B came to 4 unitless; in the assay with collagenase 1 it was 2230 unitless; in the assay with human Gelatinase-A it was 28 unitless; in the assay with stromelysin 1, 1050 unitless.

B15: Dnp-GPAPFRVC(Me)-NH2 (peptide)
peptide: Dnp-GPAPFRV[C(Me)]-NH2
SMILES: CSC[C@H](NC(=O)[C@@H](NC(=O)[C@H](CCCNC(=N)N)NC(=O)[C@H](Cc1ccccc1)NC(=O)[C@@H]1CCCN1C(=O)[C@H](C)NC(=O)[C@@H]1CCCN1C(=O)CNc1ccc([N+](=O)[O-])cc1[N+](=O)[O-])C(C)C)C(N)=O
On to B15, for which the “Selectivity v. Coll-3” value with gelatinase B is 82 unitless; with collagenase 1 it was 5790 unitless; with human Gelatinase-A, 37 unitless; in the assay with stromelysin 1, 448 unitless.
